A short description of this data set: soluble on expression in E. coli; label from the status in PepcDB or PDB records.
Consider “SAARLLRGSLRVLGGHRAPRQLPAARCSHSGGEERLETPSAKKLTDIGIRRIFSPEHDIFRKSVRKFFQEEVIPHHSEWEKAGEVSREVWEKAGKQGLLGVNIAEHLGGIGGDLYSAAIVWEEQAYSNCSGPGFSIHSGIVMSYITNHGSEEQIKHFIPQMTAGKCIGAIAMTEPGAGSDLQGIKTNAKKDGSDWILNGSKVFISNGSLSDVVIVVAVTNHEAPSPAHGISLFLVENGMKGFIKGRKLHKMGLKAQDTAELFFEDIRLPASALLGEENKGFYYIMKELPQERLLIADVAISASEFMFEETRNYVKQRKAFGKTVAHLQTVQHKLAELKTHICVTRAFVDNCLQLHEAKRLDSATACMAKYWASELQNSVAYDCVQLHGGWGYMWEYPIAKAYVDARVQPIYGGTNEIMKELIAREIVFDK”, for which the “soluble on expression in E. coli” value is recorded as “soluble”.
With “SADKEKKKKESILDLSKYIDKTIRVKFQGGREASGILKGFDPLLNLVLDGTIEYMRDPDDQYKLTEDTRQLGLVVCRGTSVVLICPQDGMEAIPNPFIQQQDA”, the “soluble on expression in E. coli” value is listed as “soluble”.
In the case of “SAGAAPTTAFGQAVIGPPGSGKTTYCLGMSEFLRALGRRVAVVNLDPANEGLPYECAVDVGELVGLGDVMDALRLGPNGGLLYCMEYLEANLDWLRAKLDPLRGHYFLFDCPGQVELCTHHGALRSIFSQMAQWDLRLTAVHLVDSHYCTDPAKFISVLCTSLATMLHVELPHINLLSKMDLIEHYGKLAFNLDYYTEVLDLSYLLDHLASDPFFRHYRQLNEKLVRLIEDYSLVSFIPLNIQDKESIQRVLQAVDKANGYCFGAQEQRSLEAMMSAAMGADFHFSSTLGIQEKYLAPSNQSVEQEAMQL” it was “not soluble”; in that of “SAGPQQQPPYLHLAELTASQFLEIWKHFDADGNGYIEGKELENFFQELEKARKGSGMMSKSDNFGEKMKEFMQKYDKNSDGKIEMAELAQILPTEENFLLCFRQHVGSSTEFMEAWRKYDTDRSGYIEANELKGFLSDLLKKANRPYDEPKLQEYTQTILRMFDLNGDGKLGLSEMSRLLPVQENFLLKFQGMKLTSEEFNAIFTFYDKDRSGYIDEHELDALLKDLYEKNKKEMNIQQLTNYRKSVMSLAEAGKLYRKDLEIVLCSEPPM”, “soluble”.
With “SAGTQLFRFREEPGPGGNRAVLEVRVPQVLHVQYGMYVWPCAVVLAQYLWFHRRSLPGKAVLEVGAGVSLPGILAAKCGAKVILSDSSEFPHCLDICRQSCQMNNLPQVEVVGLTWGHISKDILSLPPQDIILGSDVFFEPEDFESILATVYFLMQKNPKVQFWSTYQVRSADWSLEGLLYKWDMKCVHIPLESFDADKEDIAESTLPGRHTVEMLIISFAKDSF”, the “soluble on expression in E. coli” value is on record as “soluble”.
As for “SANLCKRVVDLEKYIVKEAPPTVYYIPDFISEAEEEFLLQQVYRAPKPKWTQLSGRRLQNWGGLPNPKGMLAEKLPDWLLEYTEKISALGAFAGKTANHVLVNEYKPGEGIMPHEDGPLYHPTVTTITVGSHTLLDFYRPVCQAEPDAPQTEESRYMLSLLVQRKSLLILQDDMYKCYLHGIRGVCEDVLSEHVVNISSTGAQVGDTLPRSTRVSLTIRHVPKIIRANLFLGKK”, the “soluble on expression in E. coli” value is given as “soluble”.
On to “SASAGGEDCESPAPEADRPHQRPFLIGVSGGTASGKSTVCEKIMELLGQNEVEQRQRKVVILSQDRFYKVLTAEQKAKALKGQYNFDHPDAFDNDLMHRTLKNIVEGKTVEVPTYDFVTHSRLPETTVVYPADVVLFEGILVFYSQEIRDMFHLRLFVDTDSDVRLSRRDKEVCRCDHPTRSGQYGCHQPDRAAHPGHSEW”, for which the “soluble on expression in E. coli” value was “soluble”.
The entry for “SASSQGKNELKLADWMATLPESMHSIPLTNLAIPGSHDSFSFYIDEASPVGPEQPETVQNFVSVFGTVAKKLMRKWLATQTMNFTGQLGAGIRYFDLRISTKPRDPDNELYFAHGLFSAKVNEGLEEINAFLTDHHKEVVFLDFNHFYGMQKYHHEKLVQMLKDIYGNKMCPAIFAQEVSLKYLWEKDYQVLVFYHSPVALEVPFLWPGQMMPAPWANTTDPEKLIQFLQASITERRKKGSFFISQVVLTPKASTVVKGVASGLRETITERALPAMMQWVRTQKPGESGINIVTADFVELGDFISTVIKLNYVFDEGEANT” is “soluble”; for “SASWLPETLFEIVGQGPAPSKDYYQLLITRTQIIFRWWKISLRSEYRSAKPGETKESHEDFLDNSHLQVQVAVVFGTKILDYVFNLCEGKFDYLERLSDRLLLKIICYLDLEDIASLSQTSSKFEKLCKSDLLWEQIVQSTCDTITPDMRALAKNMGWRQMFLTNNIQLQRQTRKKKQRQENQAEKLA” it is “soluble”.
On to “SDEFDALRIKWATLLTGGPALDPADSDIAARTDKLAQDANDYWEDMDLSSSRTYIWYALRGNGTSDNVNAVYERLRTMALAATTVGSSLYGNADLKEDILDALDWLYVNSYNSTRSRSAYNWWHWQLGIPMSLNDIAVLLYDDISAARMATYMDTIDYFTPSIGLTGANRAWQAIVVGVRAVIVKDAVKLAAARNGLSGTGIFPYATGGDGFYADGSFVQHTTFAYTGGYGSSVLETTANLMYLLSGSTWSVSDPNQSNVWQWIYEAYRPLLYKGAMMDMVRGREISRSYAQDHAVGHGIVASIVRLAQFAPAPHAAAFKQIAKRVIQEDTFSSFYGDVSTDTIRLAKAIVDDPSIAPAAAPNLYKQYAAMDRAVLQRPGFALGLALYSTRISSYESINSENGRGWYTGAGATYLYNQDLAQYSEDYWPTVDAYRIPGTTVASGTPIASGTGTSSWTGGVSLAGQYGASGMDLSYGAYNLSARKSWFMFDDEIVALGSGISSTAGIPIETVVDNRKLNGAGDNAWTANGAALSTGLGVAQTLTGVNWVHLAGNTADGSDIGYYFPGGATLQTKREARTGTWKQINNRPATPSTAVTRNYETMWIDHGTNPSGASYGYVLLPNKTSAQVGAYAADPAIEIVVNTSGVQSVKEKTLGLVGANFWTDTTQTADLITSNKKASVMTREIADERLEASVSDPTQANNGTIAIELARSAEGYSADPGITVTQLAPTIKFTVNVNGAKGKSFHASFQLG”, for which the “soluble on expression in E. coli” value is on record as “soluble”.
The entry for “SDENNGLLLLELNPPNPWDLQPRSPEELAFGEVQITYLTHACMDLKLGDKRMVFDPWLIGPAFARGWWLLHEPPSDWLERLCQADLIYISHLHSDHLSYPTLKKLAGRRPDIPIYVGNTERPVFWNLNQSGVQLTNINVVPFGIWQQVDKNLRFMILMDGVHPEMDTCIIVEYKGHKILNIVDCTRPNGGRLPMKVALMMSDFAGGASGFPMTFSGGKFTEEWKAQFIKTERKKLLNYKARLVKNLQPRIYCPFAGYFVESHPSDKYIKETNTKNDPNELNNLIKKNSDVITWTPRPGATLDLGRMLKDRTDSKGIIEPPEGTKIYKDSWDFEPYLEILNAALGDEIFLHSSWIKEYFTWAGFKDYNLVVRMIETDEDFNPFPGGYDYLVDFLDLSFPKERPQREHPYEEIHSRVDVIRHVVKNGLLWDELYIGFQTRLQRDPDIYHHLFWNHFQIKLPLTPPNWKSFLMCCEQNGPVILQECKTT” is “soluble”; for “SDKDSQGLLDSSLMASGTASRSEDEESLAGQKRASSQALGTIPKRRSSSRFIKRKKFDDELVESSLAKSSTRVKGAGGVESGRCSGSEPSSSEKKKVSKAPSTPVPPSPAPTPGLTKRVKKSKQPLQVTKDLGRWKPADDLLLINAVLQTNDLTSVHLGVKFSCRFTLREVQERWYALLYDPVISKLACQAMRQLHPEAIAAIQSKALFSKAEEQLLSKVGSSSQPTLETFQDLLHTHPDAFYLARTAKALQAHWQLMKQYYLLEDQTVQPLPKGDQVLNFSDAEDLIDDSKLKDMRDEVLEHELTVADRRQKREIRQLEQELHKWQVLVDSITGMGSPDFDNQTLAVLRGRMVRYLMRSREITLGRATKDNQIDVDLSLEGPAWKISRKQGVIKLKNNGDFFIANEGRRPIYIDGRPVLCGSKWRLSNNSVVEIASLRFVFLINQDLIALIRAEAAKITPQ” it is “soluble”.
In the case of “SDLFTDGDIFQDIVDAACKRRVPVYIILDEGGVKYFLEMCQGLELADFRIRNIRVRSVTGIGFYMPMGKIKGTLSSKFLMVDGDKVATGSFSFTWSSSYVDRNLLLLLTGQNMEPFDIEFRELYAISEEVNLHQHLGLAGRIGLNYSSTVARKLINPKYALVAGTRRPPGEMMRWAARQQREAGGNVEGQEEGSGGGESARRLESFLNDLVTVEQILPTVEPISPRLQRPTNGRPVSHAHTDAKHRSREALPQNGKGEAANGEATPAKEGKRFSSRLFSRRVKRPAVPSSMASSPSTETFADVEFPLGKRHNEGSNANISGKGITKASNCVIS” it was “soluble”.
In the case of “SDQEEGLKALDNIVTQFNAYEDFLDSQITTVDLYYLEDETLARQLVELGYRGTGERVKREDFEARKAAIEIARLAERAQQKTLTSAGKDLQDNFLTALAMREEDNRSGKLSSVIFIRDRNSHGQEISGYIDYAHRLKTEDFEVYFTGKKRLLPRPTDISFYNWDADIAVSNSSPNYQVIADNPEGLLFRYKRDRKILNVDPKAQPGDNSTRITILTELYIQAVIFDHISRRKT” it was “soluble”; in that of “SEESRESPAEHGYYMPAEWDSHAQTWIGWPERQDNWRHNALPAQRVFAGVAKAISKFEPVTVCASPAQWENARKQLPEDIRVVEMSMNDSWFRDSGPTFIVRKRPVKLSSLNRNIAGIDWNFNAWGGANDGCYNDWSHDLLVSRKILALERIPRFQHSMILEGGSIHVDGEGTCLVTEECLLNKNRNPHMSKEQIEEELKKYLGVQSFIWLPRGLYGDEDTNGHIDNMCCFARPGVVLLSWTDDETDPQYERSVEALSVLSNSIDARGRKIQVIKLYIPEPLYMTEEESSGITQDGEAIPRLAGTRLAASYVNFYIANGGIIAPQFGDPIRDKEAIRVLSDTFPHHSVVGIENAREIVLAGGNIHCITQQQPAEPTSVAENGH”, “soluble”; in that of “SEEYHRHCDEVGFNAEEAHNIVKECVDGVLGGEDYNHNNINQWTASIVEQSLTHLVKLGKAYKYIVTCAVVQKSAYGFHTASSCFWDTTSDGTCTVRWENRTMNCIVNVFAIAIVL”, “soluble”.
For the sequence “SEKADEKTYDLRDPSQLVALFTENENEDFIKISLSKYIESLIQSHNMASYNIVFLYDETRSISRYHSNQIYEAASSATDKKDILLILHSGGGQIEPAYLISKTCKSLTKKKFVVGIPRRAKSAATLISLGADEIHMGLMSELGPIDPQIGGYPALGLSNALNTLAGLACRFPDSADMFAKYLTDNLNLKDLGYFERVSESASQYAERLLAGKKFPAPSTAQSLANHFVNHYKDHGFVIDSDEATNLLGSNIIKQNTAEYLFANELYKFLDFASF”, the “soluble on expression in E. coli” value is listed as “not soluble”.
Turning to “SERRLGVRAWVKENRGSFQPPVCNKLMHQEQLKVMFIGGPNTRKDYHIEEGEEVFYQLEGDMVLRVLEQGKHRDVVIRQGEIFLLPARVPHSPQRFANTVGLVVERRRLETELDGLRYYVGDTMDVLFEKWFYCKDLGTQLAPIIQEFFSSEQYRTGKPIPDQLLKEPPFPLSTRSIMEPMSLDAWLDSHHRELQAGTPLSLFGDTYETQVIAYGQGSSEGLRQNVDVWLWQLEGSSVVTMGGRRLSLAPDDSLLVLAGTSYAWERTQGSVALSVTQDPACKKPLG”, the “soluble on expression in E. coli” value is “soluble”.
The entry for “SFDRALKPFLKSCHFQTLRDPVDQCVSYHLRSVTEKFPEVHMEVIADYEVHPNRRPKILAQTAAHVAGAAYYYQRQDVDADPWGTQHIAGVCIHPRFGGWFAIRGVMLLPGIEVPNLPPRKPPDCVPTRAGRITLLEGFNFHWRDWTYRDAVTPEERYSEEQKIYFSTPPAQRLALLGLAQPSEHPSTTSELPLSLLTKPQNSRRARSWLSPSVSPPVSPGP” is “soluble”.
In the case of “SFKADLGTIGIQLHTTYSRRIRKVKVMDNRKEPPFFNEDNVGPFYFKLPFYDPMELFIETLTGTCFELRVSPFEAVISVKGKIQRLEGIPICQQHLIWNNMELEDDYCLNDYNISEGCTLKLVLAMRGGPISTRKVPVEDPLRELAEYMDSSRDEVWEKTSCNKQVTFLVYREGDQLNFFRVVDRGDGTLTPLSESLSGGSVYNLYTDEDEETEPSPSGQQIIENSITMNKMKLLKAKMENMNLSKKVKPLAVRQAFL” it was “soluble”.

Values taken from the DeepSol protein solubility set.
